Measured values: PMC12774657

Columns and labels:
[1] = biological target: HIF1a bHLH-PASA-PASB;ARNT bHLH-PASA-PASB (;) (UniProt Q16665+P27540); experiment: EMSA; conditions: EMSA: 10 nM probe, 20 mM Tris pH 8.0, 250 mM NaCl, 16 ug/ml salmon sperm ssDNA, 30 ug/ml BSA, 1.25 mM MgCl2, 6% glycerol, 10 mM DTT, room temperature 30 min …
[2] = biological target: HIF2a bHLH-PASA-PASB;ARNT bHLH-PASA-PASB (;) (UniProt Q99814+P27540); experiment: EMSA; conditions: EMSA: 10 nM probe, 20 mM Tris pH 8.0, 250 mM NaCl, 16 ug/ml salmon sperm ssDNA, 30 ug/ml BSA, 1.25 mM MgCl2, 6% glycerol, 10 mM DTT, room temperature 30 min …

Substance: TACGTG-containing EMSA probe
- binding signal (fold affinity vs HIF2a/ARNT) [1]: 2
- binding signal (reference (HIF1a/ARNT ~2 fold higher)) [2]: 1
